Laboratory results: patent US5156956A, “Transgultaminase” (Ajinomoto Co., Inc., priority 1987, dated 1992)

Columns and labels:
[1] = tested on: oxhide-derived atelo-collagen; test: Gelation of atelo-collagen solutions; assay type: biochemical, ox; parameters: key: .smallcircle.: gelled; Δ: weakly gelled; x: remained as solution; conditions: 0.05 U/mg protein; for Gelation, Immediately After Completion of Incubation: 55° C. 60 minutes; for Gelation, After Heating at 100° C.: 100° C. 15 minutes; for Gelation, After Allowing to Stand for 60 Minutes: room temperature
Protocol: A necessary amount of oxhide-derived atelo-collagen powders (manufactured by Kouken K.K.) were taken in a test tube and 2 ml of 0.1M Tris-HCl buffer (pH 7.5) was added thereto. After maintaining in a water bath at 55° C. for 15 minutes, the mixture was stirred to prepare 3 to 10% atelo-collagen solutions. Before the solutions of high concentration were gelled due to cooling, BTGase was added thereto in 0.05 U/mg protein followed by incubation at 55° C. for 60 minutes. As a control for the all samples, 10% atelo-collagen solution with no BTGase added was also incubated likewise. Immediately after completion of the incubation, the system was allowed to stand at room temperature for 60 minutes. Then the system was further kept in a water bath of 100° C. for 15 minutes and then the condition in the test tube was observed.

[2] = tested on: Gelatin; test: Gelatin gel after heating in boiling water bath; assay type: biochemical; parameters: key: x: complete solution; .smallcircle.: gelled condition (not dissolved even after heating); conditions: 0.02 U/mg protein, 37° C. 1 h, then boiling water bath 10 minutes
Protocol: 0.1M Tris-HCl buffer (pH 7.6) was added to gelatin (manufactured by Nitta Gelatin Co., Ltd.) so as to form 5.10 wt. % solution. Gelatin was completely dissolved at 60° C. for 3 minutes and the same BTGase as that of Example 4 was added to the solution in 0.02 U/mg protein. After thoroughly mixing, the mixture was reacted at 37° C. for an hour and then heated in a boiling water bath for 10 minutes. Immediately thereafter, the condition was observed.
For purposes of comparison, the system which was identically treated except for adding no BTGase was used as control.

B1: BTGase: microorganism-derived transglutaminase; in Examples 4-11 the freeze dried product prepared in Example 1 (S. mobaraense, i.e. BTG-1) (protein, UniProt P81453 77-407, looked up)
Protein-glutamine …: DSDDRVTPPAEPLDRMPDPYRPSYGRAETVVNNYIRKWQQVYSHRDGRKQQMTEEQREWLSYGCVGVTWVNSGQYPTNRLAFASFDEDRFKNELKNGRPRSGETRAEFEGRVAKESFDEEKGFQRAREVASVMNRALENAHDESAYLDNLKKELANGNDALRNEDARSPFYSALRNTPSFKERNGGNHDPSRMKAVIYSKHFWSGQDRSSSADKRKYGDPDAFRPAPGTGLVDMSRDRNIPRSPTSPGEGFVNFDYGWFGAQTEADADKTVWTHGNHYHAPNGSLGAMHVYESKFRNWSEGYSDFDRGAYVITFIPKSWNTAPDKVKQGWP
.smallcircle.: Gelation, Immediately After Completion of Incubation ([1]; 3% Solution) | Gelation, After Heating at 100° C. ([1]; 3% Solution) | Gelation, After Allowing to Stand for 60 Minutes ([1]; 3% Solution) | Gelation, Immediately After Completion of Incubation ([1]; 5% Solution) | Gelation, After Heating at 100° C. ([1]; 5% Solution) | Gelation, After Allowing to Stand for 60 Minutes ([1]; 5% Solution) | Gelation, Immediately After Completion of Incubation ([1]; 10% Solution) | Gelation, After Heating at 100° C. ([1]; 10% Solution) | Gelation, After Allowing to Stand for 60 Minutes ([1]; 10% Solution) | Condition of 5% Gelatin, +BTG [2] | Condition of 10% Gelatin, +BTG [2]
